The target of this assay is GFP-RTN1 (reticulon RTN1 fused to GFP; FRET donor) (Arabidopsis). In words: FRET or BRET; FRET-FLIM (two-photon microscope): donor GFP-RTN1 and RFP-tagged acceptor coinfiltrated into N. tabacum leaf epidermal cells, measured after 48 h in low-mobility ER continuous with the nuclear envelope; donor lifetime compared with GFP-RTN1 alone.

The molecule “AtLNP2-RFP (Arabidopsis Lunapark 2, splice variant AtLNP2.1, fused to RFP; FRET acceptor) (natural protein)” yielded a reduction of the donor (GFP-RTN1) fluorescence lifetime of 0.2 ns.

B1: AtLNP1-RFP (Arabidopsis Lunapark 1 fused to RFP; FRET acceptor) (natural protein)
chain: MAVGEKEHEGTVVESGGEKNDSAVVLSASGEKKTTKRKGLFSRLWNAIFRVRGDDFEKRLKNISKEEATVRNRMKRRSITRRNFIRNLIAFSVFFEVIAVSYAIMTTRDEDLDWKLRSFRILPMFLLPAVAFLLYSSLVGFWRMCDRRDQHTLEKLQAEMLGKINELKERTNYYITQQLIQRYDPDPAAKAAAATVLASKLGAESGLKVFVGDESQLEPTAGKNNAKHSGGLRNRKQTNTRGNSAETTPIHHSDNESNHSGTSERITGTEQNQQMVFEHYNPQEYAAHDGSWISRIAALLVGEDPSQSYALICGNCRMHNGLARKEDFPYITYYCPHCRALNKPKHSEEHSLIAPADTLPKVSLKPMESEVINSSSSTSERGNSPIPLLHTPEIVEEVPETAENETPN
B1 returned a reduction of the donor (GFP-RTN1) fluorescence lifetime of 0.2 ns.

The values above are taken from article PMC6055799.
